Measured values published in the supplement of paper PMC12764529.

Assay: folding stability dG unfold (combined trypsin and chymotrypsin); higher = more stable
Method: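 Folding stability of de novo designed mini-proteins (<80 aa, no Cys; designed by TrROS, TrMRF, ProteinMPNN and the joint model) was measured by cDNA display proteolysis with trypsin and chymotrypsin. Each protease was used at 11 concentrations in a threefold dilution series plus a no-protease condition. K50 was inferred by Bayesian fitting of sequencing counts, and dG unfold was derived against a sequence-predicted unfolded-state K50 (Tsuboyama et al. method). Sequences shown include variable-length N-terminal GS-type padding (SAGGSAGG...) inside a display construct carrying a PA tag. Rows were kept only if the AF2 dimer inter-PAE was >15, to exclude likely homo-oligomers.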

Folding stability dG unfold, < -1 kcal/mol:
SAGGSMPIDDIKEINIQYNPNTGTVMVPFRLPNGHEIMAEQKYDPEAGWPVIPIRVNDGKPIEIPISAGGSA [r2_490_TrROS]
SAGSYTVDVSYRVPVRLSPAGAVEVPVEVELKRYLPDGVPLGEEEIEEEEEKLAEEIAKELAEALAPLSAGG [r19_389_JUSTAS]
SAGGSAGGSAPGQKFPIKEVYWNDGRLAIKVEDNGEEQIIPVGAKIEDDDDGEIKIKLLPPPSAGGSAGGSA [r18_468_TrROS]
SAGGASVPVEPRLDASGRERVRATLEIRPTLPNGTRTSRAVPVEFASRAELRAFIAARAPTADAVLLSAGGS [r16_652_JUSTAS]
SAGSATFTRATTPLPEVTLSWEELEELVKDPNIDSISVHSPTADRTLPAPEGKITGPLAPDQTVTLVGSAGG [r19_152_JUSTAS]
SAGGSAGGSAPLVENPVPLYVPEEEAVPLAEEIRKKLTKGGLKKIVFEVVPPEEAGIPPDEPLSAGGSAGGS [r12_93_JUSTAS]
SAGGSAGGSAGGPRVTGTPVPGDDEPLLVVEREYTVEVGGGPRPVRVRFVFDHPDEALRSSAGGSAGGSAGG [r7_896_TrMRF]
SAGGSAGGSAGMKVEPKEDPVVDKSGKPKPITKIYVYVPEPLREEALKEAEENGEEVVLESAGGSAGGSAGG [r17_114_JUSTAS]
SAGGSAMKFYIKYDPKKEKTILILPENNPDLEGNDGSKVIKVENEEELIKLIEEAKKKGIKKIEIKSAGGSA [r15_1004_TrMRF]
SAGGSAGGSAVIVIPASVVEEKKEKIELKLEDETEYEVEVTTEKVGDEPIAVLKLIPKNIPSSAGGSAGGSA [r18_447_JUSTAS]
SAGGSAGGSAGMIVRPVTVTIIDPTNSTPVKTFEALELPDELVIPEEVAKQFSPENVLVRSAGGSAGGSAGG [r11_725_JUSTAS]
SAGGSAGGSLSLSSNPLVTDPETGEVVYPAVADPVGIATAQWPDSTSYTPMPPNVTRVVRPGEASAGGSAGG [r6_627_JUSTAS]
SAGGSAGGSAGGMPVSFEELKKLPPNTVLIFSDGTVVTAPEEEVKKPFGKEKIVYVEEKPSAGGSAGGSAGG [r7_643_JUSTAS]
SAGGSAGGSAGERYYMVEIQPKNGRRIKIMIPDDPEKAVKKARELFPDYEVEVEPMKKPPSAGGSAGGSAGG [r11_850_TrROS]
SAGGSEVFVLPNGAVAVVEPDPDGVRVARVPGLPGVAVRYPPATRRWVLVTVDPRKGGPRTFTLTGSAGGSA [r2_477_TrMRF]
SAGGSAGGSMTPEKIKKIRKRMEERGYQIPSIETNPGNGMPFININPPDPEMREKDPELRELISAGGSAGGS [r12_482_TrROS]
SAGSMKLLILATSYPPDGSTTTKPIFGTEEDLKAAVEALPDGEKAATIIEVSEEGLKTIKTETRPPSLGSAG [r5_970_JUSTAS]
SAGGSATIEEILKEIAEPHGAEPEVDPNSGVIEVDFPNGQEHTINVDDGKPIKIKYNPPGRMYIEISAGGSA [r15_256_TrROS]
SAGGSAGGSAGGSENEPIPIQVKIWDPKDGEPVRTIPFNIWPGRSINELANKFPGVEIVSAGGSAGGSAGGS [r4_187_TrROS]
SAGGMDDVIRKALEEATPPLEVKEELILTTEPTPRGTVITKTTRPIIKSPEPGTFVPEPVEVVPAALLSAGG [r19_11_JUSTAS]
SAGGSAGGSAGGADVPVAELEARGLGREALIAELGEDVTVTTEEHAPGAPVYRLTPLASSAGGSAGGSAGGS [r10_855_JUSTAS]
SAGGPSMSLSTRTVTLPVDPDTTEEEIKEALNREVKLPSPSTAIETPVEVEISPGPPVATVTLQVKILSSAG [r5_939_JUSTAS]
SAGGSEPFTPEDLIRKALPVKPKAVVIPGPVSEEEIKALLDAGIPVVIIGKDGSRAVAVGDEVKPLSAGGSA [r2_33_TrMRF]
SAGGSAGGSAGGKKIKIVKVEPGKVKFSLGKKGKNIPGFEKEVKVEVYEIETDLEPLLNSAGGSAGGSAGGS [r10_654_TrMRF]
SAGGANAKDVKRDGNNIQITFDGQILFKIQPPKPVPPVRVRHPDGKEHHAPLEDLKKENPDNWEIEPPSAGG [r13_802_TrROS]
SAGGSAGGSGMTVEERTSPDGTRVEVYLGPGSVVREESPEGVVTVRTLTDGRVEREEVVPVPASAGGSAGGS [r12_451_JUSTAS]
SAGGMLRTVKTEKYSDGTVVEPVADAAGNVTYTIVKKRKKVFDGDKVYYSEPVTIFKNGVKVEEKNISSAGG [r13_1007_JUSTAS]
SAGGSAGGSAGGSMKILYKLKNDNKVITSLEELKKEIESGKKVTIEEVKEIEESPDVPLSAGGSAGGSAGGS [r4_479_JUSTAS]
SAGGMDPAEAREIAKEIMKKFEENGRPYYAKITIRPDPKIQDIDIMPPGEPLEPRADPGQRTIMFRFPSAGG [r13_693_TrROS]
SAGGDDFRVERFHPGEPREPREIDGDADDLLEELPPNDSYVHIEFKDDGGKKRIQMDTPEDLKNFIRDSAGG [r13_299_TrROS]
SAGGSAGGSAGGSAMVYRTEVLVESEELPPPGVGGRLRREGEKVIVRKAPPEALEELGRSAGGSAGGSAGGS [r4_274_JUSTAS]
SAGGSPITPEIAQELAEEFPNWDIHVEPRKPGEEIRFPNGMRIFDDPNGYRVMVHNPNGKPRQLPVSAGGSA [r2_166_TrROS]
SAGGGSIEDSNLSEEEIKEILSKLPEPVTVTVKRKEVKKVTYFENGKVKEEKIVEKEKTEVYYFPPKKSAGG [r13_632_JUSTAS]
SAGGSAGGSAGGSGMRLVEEVKYSTRKQPTGVPVYEVENLKVKEVPVKITVDSNGVLTLESAGGSAGGSAGG [r11_381_JUSTAS]
SAGGDPDWKPIEFNLQRTVKPGDPEQIEEKAREFFEMFGIKSVTDVERERNPEGQQTVQASVKIRFPDSAGG [r13_222_TrROS]
SAGGSAGGSTWEEVKKKAKEAGPELDFEPSPEGEKKFKIVAPKDKPEAVEALAKEYNVELEIESAGGSAGGS [r12_74_TrMRF]
SAGGSAGGSDINVRVIELPDEDGTPYLLLEADNPEGLSDEIAAAFPPDWDVRTDDDRVWVLRRSAGGSAGGS [r20_189_TrMRF]
SAGGSAGGSAGGSHTFEFPGRKITIHRNPNGMYPIEIETNGKPREIMIPPNDLDKLLKASAGGSAGGSAGGS [r4_346_TrROS]
SAGGPPKWKEVEFRMPPEDLKPDDIVDELQDDGIEIYNGDKPIDPGKSVDDLMQDNPNMPFTIKVWDSAGGS [r8_38_TrROS]
SAGGSAGGMKVTFDDGVEETLNLTEEEAKAWAESRPDRKMTRIEKEPPEKLSPENLTPEAIKLKSAGGSAGG [r6_881_JUSTAS]
SAGGPKIHIDRGPDYIRVKINGPDGKPIAPSTIPYEDPDNGEEEEVKIPIEELAQESGFPIEIEPYDSAGGS [r16_778_TrROS]
SAGMMVLVRNKNGETVPLEDMTEEQLKNMDIEEVEILPPPEIKVEEEVKVDENGNLTVKKKIEIKIEFSAGG [r19_232_TrROS_Hall]
SAGGSMKSEKVFTDPGPFDGASVTVTATEDGTITITVVDPDGVPKTFTKKVEKGNPEEVVKEAIKESAGGSA [r2_298_TrMRF]
SAGKPRPIINIEWQPNPDGQPNLTISVMRRDPKNGDMKPREYTIDPGADPEDLIKKALDEGADYVSIHPSAG [r5_37_TrROS]
SAGGSAGGSLTIPLPDGGTLTVVEEDEEEVLVEERKPNPGGSSPATFTRTIRRPPPVLPPKLVSAGGSAGGS [r12_959_JUSTAS]
SAGGMTIDSPEEAVQAIEDNPDKPLTLLVPTDPSTGSVPEEVVQAFAEPGFPISRDPAGYWTITYPPSAGGS [r16_335_JUSTAS]
SAGGMITTEREVEVPPDELDEVIERLKAEVAAQPLEPAEDIKILEIEEKEEKAVIKYKVTAKVEGEKLLSAG [r5_575_JUSTAS]
SAGGSAGGSAGGGYRLVTTTERRTLVYREYDPTTDRFRPVKPVPTTIETTLLAPEDELLSAGGSAGGSAGGS [r10_610_JUSTAS]
SAGGSAGGSAGGSFVPMSQVTKVTPVGDKLVIETPGNPIVFSPEEIPIPEDLPLNFVPRSAGGSAGGSAGGS [r10_665_JUSTAS]
SAGGMNMYLRVEQYRKKPNGEPEKRELSIPFPPNEPVEEIADELQKDNPYIKVEIYSPGTGKQQTITISAGG [r13_663_TrROS]
SAGGMPVVTPTTSTEPLPGGRAATVTTYTPPDGLVRQEVTLPPERRLFRLIDPATGEVVEKEEAELESAGGS [r16_735_JUSTAS]
SAGGSAGGMKKEKFGDSIRYTFPVDPNTSVEEIKKEIEKIPGVKDISKVKITPSPSNKLLVYVKSAGGSAGG [r6_516_JUSTAS]
SAGGSAGGSAGPNDKWKMEMEIEHSIPIEPGDTVRSPDTGEPIKPGKQVSIFRMYMEPAPSAGGSAGGSAGG [r11_793_TrROS]
SAAEWLKEEGLKVKDVEVTKPRENPNGKREMEYRIKVRLPNKKVEVPIRMPSDSPETALNMAHNILRELSAG [r14_726_TrROS]
SAGGMKAEIVNPNLSPEELKELILKAPEAKDVDIEVKKTSAKGAVSAKITTKSEKEAETIKKAVEEAVSAGG [r13_580_JUSTAS]
SAGGSAPKRRIEIYPNPNGMYRIKVSNPDGKKREHTIDGPGMPLEQLANKLNIPPGFKIDEIEPYPSAGGSA [r15_167_TrROS]
SAGGSAPPLTEVTLTEVSTDPETGTTTLTLEASGPVESVPLEFPDGRSVKAERLPDGTLVVTNPGASAGGSA [r15_736_JUSTAS]
